Results: the supplement of paper PMC9233669
This sample holds only a part of the variants without activity.

Experiments:
[1] = tested on: biotinyl-Phe-oxazolone; experiment: self-aminoacylation, catalytic enhancement (BFO) (fold over background); higher = more active; k-Seq, kA / k0A0; sequences stand for … in GGGAAUGGAUCCACAUCUACGAAUUC…UUCACUGCAGACUUGACGAAGCUG
Outline: (§1)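 The uncatalyzed rate is the low-activity peak of a bimodal Gaussian fit, and catalytic enhancement is median kA divided by it. The kA values came from pseudo-first-order fits, with 1000 bootstraps, of per-sequence fraction reacted measured by streptavidin capture, triplicate qPCR and Illumina sequencing. Mutagenized RNA pools with a 21-nt variable region (0.43 μM) were reacted with each biotinyl-aminoacyl-oxazolone at 2–1250 μM in 50 μL HEPES/NaCl/KCl/MgCl2/CaCl2 buffer with 5% acetonitrile, pH 6.9–7.0, for 90 minutes at room temperature.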

[2] = tested on: biotinyl-Ile-oxazolone; experiment: self-aminoacylation, catalytic enhancement (BIO) (fold over background); higher = more active; k-Seq, kA / k0A0; sequences stand for … in GGGAAUGGAUCCACAUCUACGAAUUC…UUCACUGCAGACUUGACGAAGCUG
Outline: as §1

[3] = tested on: biotinyl-Met-oxazolone; experiment: self-aminoacylation, catalytic enhancement (BMO) (fold over background); higher = more active; k-Seq, kA / k0A0; sequences stand for … in GGGAAUGGAUCCACAUCUACGAAUUC…UUCACUGCAGACUUGACGAAGCUG
Outline: as §1

[4] = tested on: biotinyl-Val-oxazolone; experiment: self-aminoacylation, catalytic enhancement (BVO) (fold over background); higher = more active; k-Seq, kA / k0A0; sequences stand for … in GGGAAUGGAUCCACAUCUACGAAUUC…UUCACUGCAGACUUGACGAAGCUG
Outline: as §1

[5] = tested on: biotinyl-Leu-oxazolone; experiment: self-aminoacylation, catalytic enhancement (BLO) (fold over background); higher = more active; k-Seq, kA / k0A0; sequences stand for … in GGGAAUGGAUCCACAUCUACGAAUUC…UUCACUGCAGACUUGACGAAGCUG
Outline: as §1

[6] = tested on: biotinyl-Trp-oxazolone; experiment: self-aminoacylation, catalytic enhancement (BWO) (fold over background); higher = more active; k-Seq, kA / k0A0; sequences stand for … in GGGAAUGGAUCCACAUCUACGAAUUC…UUCACUGCAGACUUGACGAAGCUG
Outline: as §1

Sequence	self-aminoacylation [1]	self-aminoacylation [2]	self-aminoacylation [3]	self-aminoacylation [4]	self-aminoacylation [5]	self-aminoacylation [6]
AUUUCCCUGGUCAUCGAAUGA [Fam2.1 aminoacylation ribozyme variant]	0.941	1.09	1.02	1.12	1.02	0.88
AUUUACCUAGGUCAUCGCGUG [Fam2.2 aminoacylation ribozyme variant]	82.1	5.32	9.66	5.84	13.6	9.58
AUUACCGUGGUCAUGGAGUGA [Fam2.1 aminoacylation ribozyme variant]	12.2	2.27	3.21	2.37	3.43	3.69
AUUCACCUAUGUCCUCGGGUG [Fam2.2 aminoacylation ribozyme variant]	21.6	2.17	3.04	2.04	4.03	3.42
UUAACCCUGGUCAUCGAGUGA [Fam2.1 aminoacylation ribozyme variant]	20.2	5.63	11.7	5.9	12	11.5
CUACUUUAACCAAUCGGUCUG [Fam1A.1 aminoacylation ribozyme variant]	1.22	0.883	0.779	0.842	0.662	0.949
AUCCACCCAGGUCAUCGGGUG [Fam2.2 aminoacylation ribozyme variant]	40	4.15	5.87	5.18	7.15	7.4
ACUACCCUGGGCAUCGAGUGA [Fam2.1 aminoacylation ribozyme variant]	41.4	3.65	7.11	4.49	7.95	6.86
AUUUACCUAGGUCAGCGGGUG [Fam2.2 aminoacylation ribozyme variant]	24.5	2.49	4.01	3.16	4.23	3.98
CCACACUCCAAGUAAUCGGUC [Fam1B.1 aminoacylation ribozyme variant]	1.97	1.01	0.951	0.95	0.919	1.29
AUUAACGUAGGUCAUCGGGUG [Fam2.2 aminoacylation ribozyme variant]	42.1	2.52	4.05	3.05	3.84	3.61
AUUCACCGAGGUAAUCGGGUG [Fam2.2 aminoacylation ribozyme variant]	60.4	4.23	8.27	5.13	11.5	8.26
CCACACUGCAAGCGAUCGGUC [Fam1B.1 aminoacylation ribozyme variant]	1.13	1.27	1.19	1.57	1.15	1.43
AAUCACCUAGGUCAUCGGGCG [Fam2.2 aminoacylation ribozyme variant]	7.85	3.35	4.05	2.77	4.1	3.94
GUUCACCUCGGUCAUCGGGUG [Fam2.2 aminoacylation ribozyme variant]	28.6	3.61	4.1	4.29	4.52	3.77
AUUCCCCUGGUCAUCGAGUAA [Fam2.1 aminoacylation ribozyme variant]	1.42	1.55	1.69	1.7	1.35	1.47
CCACACUUAAAGCAACCGGUC [Fam1B.1 aminoacylation ribozyme variant]	0.756	1.08	1.2	1.16	0.876	0.943
CUCCUUCAAACAAUGGGUCUG [Fam1A.1 aminoacylation ribozyme variant]	0.816	0.855	0.901	0.982	1.05	0.877
CCACACUUCGAGCAAUCGGUA [Fam1B.1 aminoacylation ribozyme variant]	0.573	0.715	0.716	1.06	0.849	1
AUUACCCUGGUAAACGAGUGA [Fam2.1 aminoacylation ribozyme variant]	150	7.26	19.8	7.77	19.1	20.1
AUUCACCUUGUUCAUCGGGUG [Fam2.2 aminoacylation ribozyme variant]	15.2	2.01	2.72	2.42	3.38	2.91
